Measured values: patent publication US20180155451A1 (published 2018)
Residue numbers refer to the chain shown, from its start. Numbers in names are those of the source.

T1: FcgRIIa R extracellular domain with C-terminal His tag (human, UniProt P12318 34-217)
T1 construct: extracellular domain; also called FcγRIIa R; FcγRIIa type R; not shown: His tag attached to the C terminus
T1 sequence (looked up): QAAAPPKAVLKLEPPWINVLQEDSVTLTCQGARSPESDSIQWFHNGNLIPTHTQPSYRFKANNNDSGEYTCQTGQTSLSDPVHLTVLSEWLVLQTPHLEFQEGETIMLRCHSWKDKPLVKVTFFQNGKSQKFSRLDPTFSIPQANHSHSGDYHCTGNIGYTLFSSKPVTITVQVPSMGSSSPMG

T2: FcgRIIb extracellular domain with C-terminal His tag (human, UniProt P31994 43-217)
T2 construct: extracellular domain; also called FcγRIIb; not shown: His tag attached to the C terminus
T2 sequence (looked up): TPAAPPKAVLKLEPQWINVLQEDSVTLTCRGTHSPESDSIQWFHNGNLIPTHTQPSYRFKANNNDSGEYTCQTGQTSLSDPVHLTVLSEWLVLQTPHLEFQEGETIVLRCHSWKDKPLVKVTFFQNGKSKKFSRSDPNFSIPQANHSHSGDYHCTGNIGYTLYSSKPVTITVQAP

T3: FcgRIIa H extracellular domain with C-terminal His tag (human, UniProt P12318 34-217)
T3 construct: extracellular domain; also called FcγRIIa H; FcγRIIa type H; not shown: His tag attached to the C terminus
T3 sequence (looked up): T1 sequence (looked up) with R134H

T4: FcγRIIa R (extracellular domain, C-terminal His tag) (human, UniProt P12318 34-217)
T4 construct: extracellular domain; Soluble receptor used as analyte in Biacore; also called FcgRIIa R; 2aR; not shown: His tag attached to the C terminus
T4 sequence (looked up): T1 sequence (looked up)

T5: FcγRIIb (extracellular domain, C-terminal His tag) (human, UniProt P31994 43-217)
T5 construct: extracellular domain; Soluble receptor used as analyte in Biacore; also called FcgRIIb; 2b; not shown: His tag attached to the C terminus
T5 sequence (looked up): T2 sequence (looked up)

B1: H240-G1d/L73-k0 (antibody, human IgG1, kappa)
heavy: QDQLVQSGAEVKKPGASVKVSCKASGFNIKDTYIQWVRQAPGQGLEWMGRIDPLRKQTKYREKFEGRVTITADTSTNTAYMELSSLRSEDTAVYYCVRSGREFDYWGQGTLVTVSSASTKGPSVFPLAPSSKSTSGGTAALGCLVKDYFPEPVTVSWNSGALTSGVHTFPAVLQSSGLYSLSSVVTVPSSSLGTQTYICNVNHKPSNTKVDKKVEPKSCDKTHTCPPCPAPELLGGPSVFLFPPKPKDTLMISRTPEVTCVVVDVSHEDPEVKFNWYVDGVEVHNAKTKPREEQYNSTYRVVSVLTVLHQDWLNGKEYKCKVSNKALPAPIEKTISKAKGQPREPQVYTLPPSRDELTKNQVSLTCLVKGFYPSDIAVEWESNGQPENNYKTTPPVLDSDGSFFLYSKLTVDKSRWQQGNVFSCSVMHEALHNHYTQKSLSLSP
light: DIQMTQSPSSLSASVGDRVTITCRASQDIHKYIAWYQQKPGQAPRLLIQYTSTLQPGVPSRFSGSGSGTDYTFTISSLQPEDIATYYCLQYEQLRTFGGGTKVEIKRTVAAPSVFIFPPSDEQLKSGTASVVCLLNNFYPREAKVQWKVDNALQSGNSQESVTEQDSKDSTYSLSSTLTLSKADYEKHKVYACEVTHQGLSSPVTKSFNRGEC
notes: Anti-epiregulin (EREG) IgG1; also called native IgG1 (anti-epiregulin)
B2: H240-afucosyl_G1d/L73-k0 (antibody, human IgG1, kappa)
heavy: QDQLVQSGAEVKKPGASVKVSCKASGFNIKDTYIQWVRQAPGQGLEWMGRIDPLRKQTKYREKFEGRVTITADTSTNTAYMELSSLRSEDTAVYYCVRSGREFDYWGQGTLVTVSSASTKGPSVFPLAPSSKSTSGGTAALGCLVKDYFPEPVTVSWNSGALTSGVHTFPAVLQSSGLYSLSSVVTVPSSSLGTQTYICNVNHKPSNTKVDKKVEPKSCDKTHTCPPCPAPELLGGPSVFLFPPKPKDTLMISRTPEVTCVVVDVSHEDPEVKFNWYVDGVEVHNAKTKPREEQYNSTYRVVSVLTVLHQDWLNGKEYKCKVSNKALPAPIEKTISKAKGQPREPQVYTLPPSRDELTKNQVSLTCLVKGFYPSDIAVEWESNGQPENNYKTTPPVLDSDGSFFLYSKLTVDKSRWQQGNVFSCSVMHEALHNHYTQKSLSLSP
light: B1 light
modifications: fucose removed from the sugar chain (afucosylated)
notes: also called afucosylated antibody
B3: H240-Kn032/H240-Hl032/L73-k0 (antibody, human IgG1, kappa)
heavy 1: QDQLVQSGAEVKKPGASVKVSCKASGFNIKDTYIQWVRQAPGQGLEWMGRIDPLRKQTKYREKFEGRVTITADTSTNTAYMELSSLRSEDTAVYYCVRSGREFDYWGQGTLVTVSSASTKGPSVFPLAPSSKSTSGGTAALGCLVKDYFPEPVTVSWNSGALTSGVHTFPAVLQSSGLYSLSSVVTVPSSSLGTQTYICNVNHKPSNTKVDKKVEPKSCDKTHTCPPCPAPELLGGPDVFLFPPKPKDTLMISRTPEVTCVVVDVSHEDPEVKFNWYVDGVEVHNAKTKPREEQYNSTYRVVSVLTVLHQDWLNGKEYKCKVSNKALPLPEEKTISKAKGQPREPQVCTLPPSRDELTKNQVSLWCLVKGFYPSDIAVEWESNGQPENNYKTTPPVLDSDGSFFLYSKLTVDKSRWQQGNVFSCSVMHEALHNHYTQKSLSLSP
heavy 2: B3 heavy 1 with C348Y, D355C, W365S, L367A, Y406V
light: B1 light
notes: S239D/A330L/I332E in both H chains (called homodimerized)
B4: H240-Kn033/H240-Hl033/L73-k0 (antibody, human IgG1, kappa)
heavy 1: not shown
heavy 2: not shown
light: B1 light
notes: Knobs-into-holes only (control)
B5: heterodimerized antibody GpH7-A5/GpH7-B3 variant L328_13S/GpL16-k0 (antibody, human IgG1, kappa)
heavy 1: not shown
heavy 2: not shown
light: DIVMTQSPLSLPVTPGEPASISCQASESLVHSNRNTYLHWYLQKPGQSPQLLIYKVSNRFSGVPDRFSGSGSGTDFTLKISRVEAEDVGVYYCSQNTHVPPTFGQGTKVEIERTVAAPSVFIFPPSDEQLKSGTASVVCLLNNFYPREAKVQWKVDNALQSGNSQESVTEQDSKDSTYSLSSTLTLSKADYEKHKVYACEVTHQGLSSPVTKSFNRGEC
notes: Anti-glypican-3 IgG1 with the alteration in only one H chain (the GpH7-B3 chain); also called He Ab
B6: heterodimerized antibody GpH7-A5/GpH7-B3 variant L328_15Y/GpL16-k0 (antibody, human IgG1, kappa)
heavy 1: not shown
heavy 2: not shown
light: B5 light
notes: as for B5
B7: heterodimerized antibody GpH7-A5/GpH7-B3 variant I332_11K/GpL16-k0 (antibody, human IgG1, kappa)
heavy 1: not shown
heavy 2: not shown
light: B5 light
notes: as for B5
B8: heterodimerized antibody GpH7-A5/GpH7-B3 variant L328_20W/GpL16-k0 (antibody, human IgG1, kappa)
heavy 1: not shown
heavy 2: not shown
light: B5 light
notes: as for B5
B9: heterodimerized antibody GpH7-A5/GpH7-B3 variant L328_18N/GpL16-k0 (antibody, human IgG1, kappa)
heavy 1: not shown
heavy 2: not shown
light: B5 light
notes: as for B5

Each binder was assayed against T1, FcgRIIa R extracellular domain with … (assay: SPR (Biacore), antibody captured on chip, FcγR extracellular domain as analyte, kinetic analysis).
Experimental: (§1) Analysis of interaction between obj ective antibody and the FcγR was carried out using Biacore T100 (GE Healthcare), Biacore T200, Biacore A100, and Biacore 4000. HBS-EP+ (GE Healthcare) was used as the running buffer, and the measurement temperature was set to 25° C. Chips produced by immobilizing the antigen peptide by the amine coupling method to a Series S sensor Chip CM5 (GE Healthcare), chips produced by allowing preliminarily biotinylated antigen peptides to interact with and immobilize onto a Series S Sensor Chip SA (certified) (GE Healthcare), chips produced by immobilizing Protein L (ACTIGEN, BioVision) to Series S Sencor Chip CM5 (GE Healthcare), or chips produced by immobilizing Protein A/G (Thermo Scientific) to Series S Sencor Chip CM5 (GE Healthcare) were used. Antibodies of interest were captured onto these chips, and allowed to interact to each FcγR diluted with running buffer. To regenerate and repeatedly use the chip, the antibodies captured onto the chip were washed off by reacting 10 mM glycine-HCl, pH 1.5.

| Kd | Binder |
| --- | --- |
| 880 nM | B1 |
| 490 nM | B2 |
| 340 nM | B3 |
| 1000 nM | B4 |

The binders below were run against T2, FcgRIIb extracellular domain with … in the same assay as above.
Experimental: as §1

| Kd | Binder |
| --- | --- |
| 6000 nM | B1 |
| 2600 nM | B2 |
| 620 nM | B3 |
| 4100 nM | B4 |

Each binder was assayed against T3, FcgRIIa H extracellular domain with … in the same assay as above.
Experimental: as §1

| Kd | Binder |
| --- | --- |
| 660 nM | B1 |
| 780 nM | B2 |
| 690 nM | B3 |
| 930 nM | B4 |

What follows are binders tested against T6, FcgRIIIa V extracellular domain with C-terminal His tag (human, UniProt P08637 17-208) in the same assay as above.
T6 construct: extracellular domain; also called FcγRIIIa V; FcγRIIIa (V158); not shown: His tag attached to the C terminus
T6 sequence (P08637 17-208 F176V): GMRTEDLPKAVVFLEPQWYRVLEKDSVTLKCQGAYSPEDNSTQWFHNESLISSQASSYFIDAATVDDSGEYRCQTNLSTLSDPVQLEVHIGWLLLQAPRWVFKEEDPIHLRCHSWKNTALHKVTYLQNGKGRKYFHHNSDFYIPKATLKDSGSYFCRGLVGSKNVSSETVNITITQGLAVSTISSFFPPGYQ
Experimental: as §1

| Kd | Binder |
| --- | --- |
| 310 nM | B1 |
| 6.9 nM | B2 |
| 3.1 nM | B3 |
| 390 nM | B4 |

Each binder was assayed against T7, FcgRIIIa F extracellular domain with C-terminal His tag (human, UniProt P08637 17-208) in the same assay as above.
T7 construct: extracellular domain; also called FcγRIIIa F; FcγRIIIa (F158); not shown: His tag attached to the C terminus
T7 sequence (P08637 17-208): as the sequence (P08637 17-208 F176V) above, with V160F counted along it
Experimental: as §1

| Kd | Binder |
| --- | --- |
| 1400 nM | B1 |
| 78 nM | B2 |
| 9.1 nM | B3 |
| 2600 nM | B4 |

Each binder was assayed against T8, FcgRIa extracellular domain with C-terminal His tag (human, UniProt P12314 16-292) in the same assay as above.
T8 construct: extracellular domain; Expressed in FreeStyle293 cells; used as analyte in Biacore; also called FcγRIa; FcγRI; not shown: His tag attached to the C terminus
T8 sequence (P12314 16-292): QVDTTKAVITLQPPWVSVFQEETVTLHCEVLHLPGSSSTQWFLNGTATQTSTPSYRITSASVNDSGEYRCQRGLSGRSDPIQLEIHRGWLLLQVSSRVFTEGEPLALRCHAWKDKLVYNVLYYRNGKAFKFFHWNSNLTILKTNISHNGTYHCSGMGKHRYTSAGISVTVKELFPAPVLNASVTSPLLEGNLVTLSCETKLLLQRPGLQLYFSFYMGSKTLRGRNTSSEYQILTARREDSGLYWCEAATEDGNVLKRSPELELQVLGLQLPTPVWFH
Experimental: as §1

| Kd | Binder |
| --- | --- |
| 0.23 nM | B1 |
| 0.43 nM | B2 |
| 0.073 nM | B3 |
| 0.25 nM | B4 |

These binders were tested against T4, FcγRIIa R (extracellular domain, …) (assay: SPR (Biacore); He/Con for FcγRIIa R divided by He/Con for FcγRIIb).
Experimental: (§2) The heterodimerized antibodies He Abs in which one of the H chains was introduced with an alteration were assayed for their binding activities to each activating FcγR and inhibitory FcγR according to the method described in Example 4. […] The activating FcγRs in FIGS. 26, 27, 28, and 29 are FcγRIa, FcγRIIa (R), FcγRIIa (H), and FcγRIIIa, respectively.
(§3) Analysis of interaction between objective antibody and the FcγR was carried out using Biacore T100 (GE Healthcare). HBS-EP+ (GE Healthcare) was used as the running buffer, and the measurement temperature was set to 25° C. Chips produced by immobilizing the antigen peptide by the amine coupling method to a Series S Sencor Chip CM5 (GE Healthcare), or alternatively, chips produced by allowing preliminarily biotinylated antigen peptides to interact with and immobilize onto a Series S Sensor Chip SA (certified) (GE Healthcare) were used. Antibodies of interest were captured onto an antigen peptide-immobilized chip, and allowed to interact to each FcγR diluted with running buffer. To regenerate and repeatedly use the chip, the antibodies captured on the chip were washed off by reacting 10 mM glycine-HCl, pH 1.5.

| He_2aR/2b (IIaR/IIb) | Binder |
| --- | --- |
| 0.78 ratio | B5 |
| 0.7 ratio | B6 |
| 0.61 ratio | B7 |
| 0.66 ratio | B8 |
| 0.73 ratio | B9 |

Each binder was assayed against T4, FcγRIIa R (extracellular domain, …) (assay: SPR (Biacore T100), antibody captured on antigen peptide chip, FcγR as analyte; relative binding amount).
Experimental: as §2, §3

| He/Con_2aR (IIaR binding) | Binder |
| --- | --- |
| 117 % of control (GpH7-A5/GpH7-B3/GpL16-k0 = 100) | B5 |
| 136 % of control (GpH7-A5/GpH7-B3/GpL16-k0 = 100) | B6 |
| 43.1 % of control (GpH7-A5/GpH7-B3/GpL16-k0 = 100) | B7 |
| 155 % of control (GpH7-A5/GpH7-B3/GpL16-k0 = 100) | B8 |
| 59.4 % of control (GpH7-A5/GpH7-B3/GpL16-k0 = 100) | B9 |

What follows are binders tested against T5, FcγRIIb (extracellular domain, …) in the same assay as above.
Experimental: as §2, §3

| He/Con_2b (IIb binding) | Binder |
| --- | --- |
| 149 % of control (GpH7-A5/GpH7-B3/GpL16-k0 = 100) | B5 |
| 193 % of control (GpH7-A5/GpH7-B3/GpL16-k0 = 100) | B6 |
| 70.9 % of control (GpH7-A5/GpH7-B3/GpL16-k0 = 100) | B7 |
| 235 % of control (GpH7-A5/GpH7-B3/GpL16-k0 = 100) | B8 |
| 80.8 % of control (GpH7-A5/GpH7-B3/GpL16-k0 = 100) | B9 |
